Key:
[1] = biological target: human IL-5 protein (purchased from Beijing Yiqiao Shenzhou) (human) (UniProt P05113); assay: cell-based or functional assay
[2] = biological target: IL-5 mutant 104L to Alanine, with His-tag (human) (UniProt P05113); assay: capture ELISA: His-tagged IL-5 from HEK293E supernatant captured with murine anti-His antibody, detected with Goat-anti-Human-Fc-Specific-HRP; mean of four wells
[3] = biological target: IL-5 mutant 86C to Alanine, with His-tag (human) (UniProt P05113); assay: as above
[4] = biological target: IL-5 mutant 96F to Alanine, with His-tag (human) (UniProt P05113); assay: as above
[5] = biological target: human IL-5 protein (purchased from Beijing Yiqiao Shenzhou) (human) (UniProt P05113); assay: SPR Biacore T200, antibody captured on Protein A/G, IL-5 as analyte

Nucala (Mepolizumab) (antibody), sequence (VH): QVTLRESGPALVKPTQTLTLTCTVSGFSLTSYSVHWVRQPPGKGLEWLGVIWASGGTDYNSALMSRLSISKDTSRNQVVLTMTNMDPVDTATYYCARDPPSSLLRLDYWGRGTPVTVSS
Nucala (Mepolizumab) (antibody), sequence (VL): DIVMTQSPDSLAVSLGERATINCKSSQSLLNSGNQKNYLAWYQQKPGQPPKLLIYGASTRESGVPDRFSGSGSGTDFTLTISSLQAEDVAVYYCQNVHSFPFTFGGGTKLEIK

- IC50 for inhibiting IL-5-induced TF-1 cell proliferation (Nucala) [1]: 0.0708 µg/mL
- OD450 [2]: 0.109
- OD450 [3]: 0.0967
- OD450 [4]: 0.19
- Kd [5]: 0.201 nM
Substance: Nucala (Mepolizumab) (antibody)

— patent publication US20210171621A1
